± gives the uncertainty stated by the source.
B1: CD2-associated protein, residues 1 to 59; numbered along this chain, Q9Y5K6 (parent)
chain: MVDYIVEYDYDAVHDDELTIRVGEIIRNVKKLQEEGWLEGELNGRRGMFPDNFVKEIKR

Variants of: B1
Test: abundance fitness (aPCA) (normalised: wild type 0, dead -1); higher = more abundant; growth selection in yeast, the domain comes from the species named
Conditions: Homo sapiens

Row | Variant | abundance fitness
1 | MVDYIVYYDYDAVHDDELTIRVGEIIRNVKKLQEEGWLEGELNGRRGMFPDNFVKEIKR | -0.18 ± 0.18
2 | MVDYIVSYDYDAVHDDELTIRVGEIIRNVKKLQEEGWLEGELNGRRGMFPDNFVKEIKR | -0.212 ± 0.094
3 | MVDYIVIYDYDAVHDDELTIRVGEIIRNVKKLQEEGWLEGELNGRRGMFPDNFVKEIKR | 0.025 ± 0.15
4 | MVDYIVQYDYDAVHDDELTIRVGEIIRNVKKLQEEGWLEGELNGRRGMFPDNFVKEIKR | -0.131 ± 0.11
5 | MVDYIVAYDYDAVHDDELTIRVGEIIRNVKKLQEEGWLEGELNGRRGMFPDNFVKEIKR | -0.135 ± 0.079
6 | MVDYIVVYDYDAVHDDELTIRVGEIIRNVKKLQEEGWLEGELNGRRGMFPDNFVKEIKR | 0.008 ± 0.072
7 | MVDYIVDYDYDAVHDDELTIRVGEIIRNVKKLQEEGWLEGELNGRRGMFPDNFVKEIKR | -0.256 ± 0.15
8 | MVDYIVLYDYDAVHDDELTIRVGEIIRNVKKLQEEGWLEGELNGRRGMFPDNFVKEIKR | -0.004 ± 0.057
9 | MVDYIVHYDYDAVHDDELTIRVGEIIRNVKKLQEEGWLEGELNGRRGMFPDNFVKEIKR | -0.581 ± 0.35
10 | MVDYIVTYDYDAVHDDELTIRVGEIIRNVKKLQEEGWLEGELNGRRGMFPDNFVKEIKR | 0.028 ± 0.074
11 | MVDYIVNYDYDAVHDDELTIRVGEIIRNVKKLQEEGWLEGELNGRRGMFPDNFVKEIKR | -0.311 ± 0.17
12 | MVDYIVPYDYDAVHDDELTIRVGEIIRNVKKLQEEGWLEGELNGRRGMFPDNFVKEIKR | -0.697 ± 0.13
13 | MVDYIVRYDYDAVHDDELTIRVGEIIRNVKKLQEEGWLEGELNGRRGMFPDNFVKEIKR | -0.087 ± 0.074
14 | MVDYIVEYCYDAVHDDELTIRVGEIIRNVKKLQEEGWLEGELNGRRGMFPDNFVKEIKR | -0.671 ± 0.37
15 | MVDYIVEYKYDAVHDDELTIRVGEIIRNVKKLQEEGWLEGELNGRRGMFPDNFVKEIKR | -0.369 ± 0.32
16 | MVDYIVEYRYDAVHDDELTIRVGEIIRNVKKLQEEGWLEGELNGRRGMFPDNFVKEIKR | -0.417 ± 0.11
17 | MVDYIVEYAYDAVHDDELTIRVGEIIRNVKKLQEEGWLEGELNGRRGMFPDNFVKEIKR | -0.091 ± 0.14
18 | MVDYIVEYEYDAVHDDELTIRVGEIIRNVKKLQEEGWLEGELNGRRGMFPDNFVKEIKR | -0.346 ± 0.12
19 | MVDYIVEYGYDAVHDDELTIRVGEIIRNVKKLQEEGWLEGELNGRRGMFPDNFVKEIKR | -0.242 ± 0.096
20 | MVDYIVEYVYDAVHDDELTIRVGEIIRNVKKLQEEGWLEGELNGRRGMFPDNFVKEIKR | -0.77 ± 0.37
21 | MVDYIVEYLYDAVHDDELTIRVGEIIRNVKKLQEEGWLEGELNGRRGMFPDNFVKEIKR | -0.92 ± 0.24
22 | MVDYIVEYSYDAVHDDELTIRVGEIIRNVKKLQEEGWLEGELNGRRGMFPDNFVKEIKR | -0.172 ± 0.13
23 | MVDYIVEYNYDAVHDDELTIRVGEIIRNVKKLQEEGWLEGELNGRRGMFPDNFVKEIKR | -0.276 ± 0.4

Row | Variant | abundance fitness
24 | MVDYIVEYTYDAVHDDELTIRVGEIIRNVKKLQEEGWLEGELNGRRGMFPDNFVKEIKR | -0.725 ± 0.21
25 | MVDYIVEYDCDAVHDDELTIRVGEIIRNVKKLQEEGWLEGELNGRRGMFPDNFVKEIKR | -0.569 ± 0.22
26 | MVDYIVEYDDDAVHDDELTIRVGEIIRNVKKLQEEGWLEGELNGRRGMFPDNFVKEIKR | -0.473 ± 0.46
27 | MVDYIVEYDADAVHDDELTIRVGEIIRNVKKLQEEGWLEGELNGRRGMFPDNFVKEIKR | -0.787 ± 0.14
28 | MVDYIVEIDYDAVHDDELTIRVGEIIRNVKKLQEEGWLEGELNGRRGMFPDNFVKEIKR | 0.184 ± 0.2
29 | MVDYIVEKDYDAVHDDELTIRVGEIIRNVKKLQEEGWLEGELNGRRGMFPDNFVKEIKR | 0.057 ± 0.12
30 | MVDYIVEMDYDAVHDDELTIRVGEIIRNVKKLQEEGWLEGELNGRRGMFPDNFVKEIKR | -0.261 ± 0.12
31 | MVDYIVETDYDAVHDDELTIRVGEIIRNVKKLQEEGWLEGELNGRRGMFPDNFVKEIKR | 0.123 ± 0.16
32 | MVDYIVEGDYDAVHDDELTIRVGEIIRNVKKLQEEGWLEGELNGRRGMFPDNFVKEIKR | -0.026 ± 0.1
33 | MVDYIVELDYDAVHDDELTIRVGEIIRNVKKLQEEGWLEGELNGRRGMFPDNFVKEIKR | -0.047 ± 0.084
34 | MVDYIVEEDYDAVHDDELTIRVGEIIRNVKKLQEEGWLEGELNGRRGMFPDNFVKEIKR | -0.02 ± 0.099
35 | MVDYIVEWDYDAVHDDELTIRVGEIIRNVKKLQEEGWLEGELNGRRGMFPDNFVKEIKR | -0.139 ± 0.094
36 | MVDYIVEPDYDAVHDDELTIRVGEIIRNVKKLQEEGWLEGELNGRRGMFPDNFVKEIKR | -0.918 ± 0.34
37 | MVDYIVEFDYDAVHDDELTIRVGEIIRNVKKLQEEGWLEGELNGRRGMFPDNFVKEIKR | 0.078 ± 0.18
38 | MVDYIVESDYDAVHDDELTIRVGEIIRNVKKLQEEGWLEGELNGRRGMFPDNFVKEIKR | 0.013 ± 0.078
39 | MVDYIVEHDYDAVHDDELTIRVGEIIRNVKKLQEEGWLEGELNGRRGMFPDNFVKEIKR | 0.148 ± 0.23
40 | MVDYIVEADYDAVHDDELTIRVGEIIRNVKKLQEEGWLEGELNGRRGMFPDNFVKEIKR | 0.002 ± 0.082
41 | MVDYIVECDYDAVHDDELTIRVGEIIRNVKKLQEEGWLEGELNGRRGMFPDNFVKEIKR | 0.096 ± 0.11
42 | MVDYIVERDYDAVHDDELTIRVGEIIRNVKKLQEEGWLEGELNGRRGMFPDNFVKEIKR | 0.097 ± 0.098
43 | MVDYIVEVDYDAVHDDELTIRVGEIIRNVKKLQEEGWLEGELNGRRGMFPDNFVKEIKR | -0.154 ± 0.11
44 | MVDYIVEDDYDAVHDDELTIRVGEIIRNVKKLQEEGWLEGELNGRRGMFPDNFVKEIKR | -0.197 ± 0.22
45 | MVDYIVEQDYDAVHDDELTIRVGEIIRNVKKLQEEGWLEGELNGRRGMFPDNFVKEIKR | 0.04 ± 0.12
